# From patent EP4480965A1, “TRANSFERRIN RECEPTOR-BINDING MOLECULES, CONJUGATES THEREOF AND THEIR USES TO PREVENT OR TREAT CNS DISEASES” (Vect-Horus, priority 2023, dated 2024)
# B1: C5-siSOD1m-5'VP: TfR-binding VHH-siRNA conjugate wherein VHH is C5 (conjugate)
# VHH: EVQLVESGGGVVQPGGSLKLSCVASGTDFSINFIRWYRQAPGKQREFVAGFTATGNTNYADSMKGRFTISRDNTKNAVYLQIDSLKPEDTAVYYCYMLDKWGQGTQVTVSSAAAEQKLISEEDLNGAAHHHHHHGS
# Tested on: murine SOD1 mRNA
# Test: CNS knock-down of SOD1 mRNA after single ICV administration (RT-qPCR)
# Format: in vivo, C57Bl/6 mice
# Settings: seven days
# Experimental: VHH-siSOD 1m conjugates were assessed for their potential to mediate murine SOD1 mRNA knock-down in the brain and spinal cord following intracerebroventicular (ICV) administration in wild-type C57Bl/6 mice. Wild-type C57Bl/6 mice (4 per group) were injected a single ICV dose (right lateral ventricle, 5-10 µL at 0.75 µL/min) of 100 µg (siRNA molar equivalent) of PBS vehicle (control), unconjugated siSOD1m-5'VP or the indicated VHH-siSOD1m-5'VP conjugates. Seven days after injection, tissue samples including total brain (right hemisphere), brain regions (from the left hemisphere), spinal cord and the liver were withdrawn, snap-frozen in 10 vol. ofNucleoProtect RNA stabilization reagent (Macherey-Nagel) and stored at -20°C. Frozen tissue samples were homogenized in QUIAzol lysis reagent using a Precellys Evolution tissue homogenizer equipped with a Cryolys Evolution cooling system (Bertin Instruments). Total RNA was extracted from tissue homogenates using the rNeasy 96 QIAcube HT Kit (QIAGEN) in a QIAcube HT system. RNA samples were analyzed and dosed using a Fragment Analyzer RNA kit in a Fragment Analyzer system (Agilent). Relative RNA expression levels were quantified by RT-qPCR using the TaqMan™ Fast Universal PCR Master Mix (2X) no AmpErase™ UNG kit (Applied Biosystems) and commercially available TaqMan™ probes for murine SOD1 and RpL13 genes (Applied Biosystems). Expression data were analyzed using the ΔΔCq method normalized to the expression of the reference RpL13 gene, based on raw quantification cycle (Cq) values (Bustin et al.). The results are expressed as means ± standard error of the mean (SEM) and are presented as mRNA levels relative to the control animals injected with PBS.
# Biodistribution of VHH-siRNA conjugates and CNS knock-down of the target SOD1 mRNAVHH-siSODlm conjugates were evaluated using in situ hybridization methods (ISH) on brain and spinal cord samples following single ICV administration in wild-type mice. […]
molecule,measurement,setting,value
B1,SOD1 mRNA knock-down (KD) in brain and spinal cord,single ICV dose 100 µg (siRNA molar equivalent),80-90%
same,SOD1 mRNA KD in brain regions of the left hemisphere,single ICV dose 100 µg,60-90%
same,downregulation of SOD1 mRNA in all regions tested of the brain ipsilateral (right) hemisphere,single ICV dose 100 µg,70-90%
